According to paper PMC6617973, “RAF dimers control vascular permeability and cytoskeletal rearrangements at endothelial cell‐cell junctions” (The Febs Journal, 2019):

Target: T1, RAF1 (endogenous, pMECs) (mouse (endogenous in pMECs), UniProt Q99N57 1-648)
T1 construct: RAF1 kinase, endogenous in primary mouse endothelial cells; source: endogenous, pMEC lysate
Assay: co-IP; RAF1 immunoprecipitates from lysates of F/F and BRAFΔ/Δ pMEC monolayers; Protein G Sepharose with antibody, 4 °C overnight; 25 mM HEPES, 150 mM NaCl, 1 mM EGTA, 0.5% NP-40, 10% glycerol; immunoblot
Conditions: partners not purified

fold increase of the co-precipitate in BRAF-deficient against F/F pMECs: 3 fold
B1: RHO‐dependent kinase α (enzyme, mouse (endogenous in pMECs), UniProt P70336 1-1388, looked up)
chain: MSRPPPTGKMPGAPEAAPGDGAGAGRQRKLEALIRDPRSPINVESLLDGLNSLVLDLDFPALRKNKNIDNFLNRYEKIVKKIRGLQMKAEDYDVVKVIGRGAFGEVQLVRHKASQKVYAMKLLSKFEMIKRSDSAFFWEERDIMAFANSPWVVQLFCAFQDDRYLYMVMEYMPGGDLVNLMSNYDVPEKWAKFYTAEVVLALDAIHSMGLIHRDVKPDNMLLDKHGHLKLADFGTCMKMDETGMVHCDTAVGTPDYISPEVLKSQGGDGYYGRECDWWSVGVFLFEMLVGDTPFYADSLVGTYSKIMDHKNSLCFPEDTEISKHAKNLICAFLTDREVRLGRNGVEEIKQHPFFKNDQWNWDNIRETAAPVVPELSSDIDSSNFDDIEDDKGDVETFPIPKAFVGNQLPFIGFTYFRENLLLSDSPPCRENDAIQTRKSEESQEIQKKLYALEEHLSSEVQAKEELEQKCKSINTRLEKTAKELEEEITLRKSVESTLRQLEREKALLQHKNAEYQRKADHEADKKRNLENDVNSLKDQLEDLKKRNQSSQISTEKVNQLQKQLDEANALLRTESDTAARLRKTQAESSKQIQQLESNNRDLQDKNCLLETAKLKLEKEFINLQSALESERRDRTHGSEIINDLQGRISGLEEDLKTGKALLAKVELEKRQLQEKLTDLEKEKSNMEIDMTYQLKVIQQSLEQEEAEHKTTKARLADKNKIYESIEEAKSEAMKEMEKKLLEERSLKQKVENLLLEAEKRCSILDCDLKQSQQKLNELLKQKDVLNEDVRNLTLKIEQETQKRCLMQNDLKMQTQQVNTLKMSEKQIKQENNHLMEMKMNLEKQNTELRKERQDADGQMKELQDQLEAEQYFSTLYKTQVRELKEENEEKTKLCKELQQKKQDLQDERDSLAAQLEITLTKADSEQLARSIAEEQYSDLEKEKIMKELEIKEMMARHKQELTEKDTTIASLEETNRTLTSDVANLANEKEELNNKLKDSQEQLSKLKDEEMSAAAIKAQFEKQLLNERTLKTQAVNKLAEIMNRKEPVKRGSDTDVRRKEKENRKLHMELKSEREKLTQQMIKYQKELNEMQAQIAEESQIRIELQMTLDSKDSDIEQLRSQLQALHIGMDSSSIGSGPGDAEPDDGFPESRLEGWLSLPVRNNTKKFGWVKKYVIVSSKKILFYDSEQDKEQSNPYMVLDIDKLFHVRPVTQTDVYRADAKEIPRIFQILYANEGESKKEPEFPVEPVGEKSNYICHKGHEFIPTLYHFPTNCEACMKPLWHMFKPPPALECRRCHIKCHKDHMDKKEEIIAPCKVYYDISSAKNLLLLANSTEEQQKWVSRLVKKIPKKPPAPDPFARSSPRTSMKIQQNQSIRRPSRQLAPNKPS
notes: ROKalpha (ROCK2), endogenous in primary mouse endothelial cells; also called ROKα; ROK; source: endogenous, pMEC lysate
